From patent publication US20120213774A1 (Hoffmann-La Roche, published 2012)
Changes are numbered by the printed parent chain. Values belong to the binder of their own block, whether it stands above or below them.

How the values were obtained:
[1] = molecular target: T1, human IL33R (ST2) on human cells (human, UniProt Q01638 19-556); experiment: cell-based or functional assay
T1 sequence (looked up): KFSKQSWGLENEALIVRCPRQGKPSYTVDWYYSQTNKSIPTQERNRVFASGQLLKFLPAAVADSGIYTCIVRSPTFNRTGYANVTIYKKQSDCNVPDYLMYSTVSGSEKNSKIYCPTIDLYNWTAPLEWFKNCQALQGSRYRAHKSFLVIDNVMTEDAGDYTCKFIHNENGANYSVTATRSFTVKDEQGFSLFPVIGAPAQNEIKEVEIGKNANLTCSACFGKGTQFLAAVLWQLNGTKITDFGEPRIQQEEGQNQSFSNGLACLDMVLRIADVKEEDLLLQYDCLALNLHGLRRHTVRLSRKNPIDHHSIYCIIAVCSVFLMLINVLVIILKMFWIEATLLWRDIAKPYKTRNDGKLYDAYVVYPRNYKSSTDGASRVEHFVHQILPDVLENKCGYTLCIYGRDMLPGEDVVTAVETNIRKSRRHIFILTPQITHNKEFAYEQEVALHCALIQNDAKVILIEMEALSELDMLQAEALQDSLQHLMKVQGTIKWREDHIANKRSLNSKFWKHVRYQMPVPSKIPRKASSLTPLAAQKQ

[2] = molecular target: T1, human IL33R (ST2) on human cells; experiment: cell-based or functional assay; remark: listed apart in the source
[3] = molecular target: cynomolgus IL33R (ST2) on cynomolgus NK cells (cynomolgus); experiment: cell-based or functional assay
[4] = molecular target: T2, recombinant cyno ST2 Fc chimera (cynomolgus); experiment: competition ELISA: antibody against biotinylated human IL33 on captured cyno ST2 Fc chimera
T2 construct: also called cynomolgus ST2
Protocol: (§1) The test was performed on 384 well MaxiSorp™ microtiter plates (Sigma-Aldrich, Nunc. DE, Cat. No. 464718) at RT. After each incubation step plates were washed 3 times with PBST (Phosphate Buffered Saline Tween®-20). […] Thereafter the wells were blocked with PBS supplemented with 0.1% Tween®-20 and 2% BSA (Roche Diagnostics GmbH, DE) for 1 h. […] Dilutions of purified antibodies or supernatants from hybridoma/B-cells in PBS with 0.5% BSA and 0.05% Tween®-20 were incubated with the receptor protein for 1 h. Biotinylated human IL33 (PeproTech, US, Cat No. 500-P261) was added for an additional hour to build up the complex. IL33 was biotinylated with Sulfo-NHS-LC-Biotin (Thermo Scientific Pierce, US, Cat. No. 21327) according to the manufacturer's protocol and purified using Zeba™ Desalt Spin Column (Thermo Scientific Pierce, US, Cat. No. 89889). Binding of the biotinylated IL33 to the complex was detected with 1:4000 diluted streptavidin HRP (Roche Diagnostics GmbH, DE, Cat. No. 11089153001). After 1 h the plates were washed 6 times with PBST and developed with freshly prepared BM blue POD substrate solution (BM blue: 3,3′-5,5′-Tetramethylbenzidine, Roche Diagnostics GmbH, DE, Cat. No. 11484281001) for 12 minutes at RT. Absorbance was measured at 370 nm. […]

[5] = molecular target: T3, recombinant human ST2/IL-1R4 Fc chimera (R&D Systems, Cat. No. 523-ST) (human, UniProt Q01638 19-328); experiment: competition ELISA: antibody against biotinylated human IL33 on captured human ST2/IL-1R4 Fc chimera
T3 construct: Bought product; also called ST2/IL-1R4 protein; not shown: Fc part of the bought chimera (captured by anti-human IgG Fc)
T3 sequence (looked up): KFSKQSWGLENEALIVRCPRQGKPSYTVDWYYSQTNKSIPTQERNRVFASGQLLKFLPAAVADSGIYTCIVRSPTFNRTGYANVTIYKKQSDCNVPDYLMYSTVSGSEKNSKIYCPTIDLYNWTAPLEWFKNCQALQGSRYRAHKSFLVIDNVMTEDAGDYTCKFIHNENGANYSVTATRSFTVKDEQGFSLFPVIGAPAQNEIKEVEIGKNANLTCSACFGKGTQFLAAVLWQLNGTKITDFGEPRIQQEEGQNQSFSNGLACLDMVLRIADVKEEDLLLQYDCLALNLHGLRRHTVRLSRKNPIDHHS
Protocol: as §1

[6] = molecular target: T4, Monomeric human ST2 ECD with 6His Avitag (human, UniProt Q01638 19-328); experiment: SPR (BIACORE T100, 37 C, pH 7.4), antibody captured by anti-human Fc, monomeric ST2 ECD in solution, apparent KD, 1:1 model
T4 construct: extracellular domain; also called human ST2 ECD (His-Avitag monomer); not shown: 6His Avitag
T4 sequence (looked up): T3 sequence (looked up)
Protocol: (§2) Monomeric human ST2 ECD with 6His Avitag™ (Avidity, LLC, US) was added in various concentrations in solution. Association was measured by injection of ST2 ECD for a contact time of 120 sec. (single cycle-kinetic) at 37° C.; dissociation was measured by washing the chip surface with buffer for 1800 sec. at 37° C. For calculation of apparent KD and other kinetic parameters the Langmuir 1:1 model was used.

[7] = molecular target: T4, Monomeric human ST2 ECD with 6His Avitag; experiment: SPR (BIACORE T100, 37 C, pH 7.4), antibody captured by anti-human Fc, monomeric ST2 ECD in solution
Protocol: as §2

NFkB IC50 [1]: 0.025 nM | IC50, GM-CSF release of KU812 basophil cells stimulated with IL33 [2]: 1.31 nM | IC50, IFN-γ secretion by human NK cells stimulated with IL33 and IL-12 [2]: 0.27 nM | IC50, IL-5 release of KU812 basophil cells stimulated with IL33 [2]: 1.48 nM | IC50, IL-5 release of human Th2 cells restimulated with IL33 [2]: 2.77 nM | IC50, IL-5 release of primary mast cells stimulated with IL33 [2]: ≤ 0.2 nM | IC50, IL-13 release of KU812 basophil cells stimulated with IL33 [2]: 3.49 nM | IC50, IL-13 release of human Th2 cells restimulated with IL33 [2]: 1.1 nM | IC50, IL-13 release of primary mast cells stimulated with IL33 [2]: ≤ 0.4 nM | IC50, IFNγ release of cynomolgus NK cells stimulated with human IL33 and cynomolgus IL-12 [3]: 0.109 nM | IC50 [4]: 0.13 nM | IC50 [5]: 0.32 nM
B1: Antibody ra170 (rabbit IgG1) (antibody, V domains shown)
VH: QSVEESGGRLVTPGTPLTLTCTVSGFSLSSHDMSWVRQAPGKGLEWIGYIWSDDNTYYASWAKGRFTISKTSTTVDLKITSPTTEDTATYFCARDQYRSSGVSDYDIWGPGTLVTVSS
VL: AAVLTQTPSPVSAAVGGTVTISCQSSQSVGNNNDLAWYQQKPGQPPKILIYKASTLASGVPSRFEGSGSGTQFTLTISDVQCDDAATYYCLGGYDDDADNTFGGGTEVVVK
notes: Rabbit monoclonal from B cell cloning; they are assigned to this molecule; also called Mab ra170; clone Ra170
IC50, eosinophil viability (IL33 dependent survival) [2]: 1.3 nM

Kd [6]: 0.0027 nM | koff [7]: 1.3e-05 s⁻¹ | kon [7]: 4.6e+06 M⁻¹ s⁻¹ | t1/2 [7]: 881 min
B2: ra170 IgG4 SPLE (antibody, V domains shown)
VH: B1 VH
VL: AAVLTQTPSPVSAAVGGTVTISCQSSQSVGNNNDLAWYQQKPGQPPKILIYKASTLASGVPSRFEGSGSGTQFTLTISDVQCDDAATYYCLGGYDDDADNTFGGGTEVVVKR

Kd [6]: 1.1 nM | NFkB IC50 [1]: 0.28 nM | IC50, IFN-γ secretion by human NK cells stimulated with IL33 and IL-12 [2]: 1.3 nM | koff [7]: 0.0051 s⁻¹ | kon [7]: 4.9e+06 M⁻¹ s⁻¹ | t1/2 [7]: 2 min
B3: humanized ra170 10.12 (antibody, V domains shown)
VH: VQLVQSGAEVKKPGASVKVSCKASGFSLSSHDISWVRQAPGQGLEWMGYIWSDENTYYASWAQGRVTMTTDTSTSTAYMELRSLRSDDTAVYYCARDQYRSSGVSDYDIWGPGTLVTVSS
VL: AAVMTQSPATLSVSPGERATLSCRSSQSVGNNNDLAWYQQKPGQAPRLLIYKASTRATGIPARFSGSGSGTEFTLTISSLQSEDFAVYYCLGGYDDDADNTFGGGTKVEIK

Kd [6]: 0.14 nM | NFkB IC50 [1]: 0.04 nM | IC50, IFN-γ secretion by human NK cells stimulated with IL33 and IL-12 [2]: 1.8 nM | koff [7]: 0.00043 s⁻¹ | kon [7]: 3.1e+06 M⁻¹ s⁻¹ | t1/2 [7]: 27 min
B4: humanized ra170 11.12 (antibody, V domains shown)
VH: B3 VH with N55S
VL: B3 VL
